Legend:
Type in all cases: in vivo
[1] = system: Arabidopsis thaliana T1 plants; assay: Isoxaflutole tolerance of transgenic Arabidopsis thaliana T1 plants (spray, bleached leaf area grade, damage score); parameters: Scores (pesticide damage): scale not given here; conditions: spray, Arabidopsis thaliana T1 plants; for Classification and statistics of the grade of pesticide damage: Grade 0 (number of plants) / Classification and statistics of the grade of pesticide damage: Grade 1 (number of plants) / Classification and statistics of the grade of pesticide damage: Grade 2 (number of plants) / Classification and statistics of the grade of pesticide damage: Grade 3 (number of plants): 16 plants
How it was run: (§1)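 Damage was assessed by bleaching grade (0 none; 1 <50%; 2 >50%; 3 100% of leaf area) one week after spraying. Sprays on 18-day-old T1 and wild-type plants used field-rate multiples: topramezone 25–200, isoxaflutole 35–280, mesotrione 52.5–420 g ai/ha.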

[2] = system: Arabidopsis thaliana T1 plants; assay: Mesotrione tolerance of transgenic Arabidopsis thaliana T1 plants (spray, bleached leaf area grade, damage score); parameters: Scores: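 damage score 0-100 computed as Σ(N×S)/(T×M)×100 over grades 0-3 with higher meaning more damage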; conditions: Arabidopsis thaliana T1 plants; for Grade 0 (classification and statistics of the grade of pesticide damage; number of plants) / Grade 1 (classification and statistics of the grade of pesticide damage; number of plants) / Grade 2 (classification and statistics of the grade of pesticide damage; number of plants) / Grade 3 (classification and statistics of the grade of pesticide damage; number of plants): 16 plants
How it was run: as §1

[3] = system: Arabidopsis thaliana T1 plants; assay: Topramezone tolerance of transgenic Arabidopsis thaliana T1 plants (spray, bleached leaf area grade, damage score); conditions: 7 DAT, Table 4; for Classification and statistics of the grade of pesticide damage: Grade 0 / Classification and statistics of the grade of pesticide damage: Grade 1 / Classification and statistics of the grade of pesticide damage: Grade 2 / Classification and statistics of the grade of pesticide damage: Grade 3: number of plants; for Scores: pesticide damage score 0-100
How it was run: as §1

[4] = isoxaflutole 35 g ai/ha (0.5x field concentration)
[5] = isoxaflutole 70 g ai/ha (1x field concentration)

B1: NtHPPDm-F372A-F383W-02: nucleotide sequence encoding Nicotiana tabacum HPPD with F372A+F383W; vector DBN11753 (nucleic acid)
DNA: ATGGGGAAGCTGGAAACCGTCACTACCACCTCGGCGGCGGCTGCTGATGATTCATCGGAATTAACAACCAACTTCAAGTTGGTTGGTTTCAAAAATTTCATCAGAACAAACCCAAGGTCTGATTTCTTCTCCGTCAAGAGCTTCCACCACATTGAATTCTGGTGCGGTGACGCAACTAACACAGCGCGCCGCTTCTCATGGAGCCTAGGGATGCCAATTGCAGCTAAGAGTGATCTTTCAACAGGAAACAGCGTGCACGCCTCCTACCTCCTCCGGCCCGTAAGCGGTTCTTTACAGTTCCTGTTTACAGCACCATATTCACCTTCTATTTCGACTCCTAGTTCAGCTGCAATCCCATCTTTTTCCACATCTACACATAGGTCTTTCACTACAACACATGGACTGGGTGTTCGTGCCGTCGCCCTCGAGGTGGAGAATGCTTATACTGCCTTCAGTGCTTCTGTCTCCAGAGGCGCCAAGCCAATGTTTGAACCTGTGACAATTGATGAACAAGTAGCAATGGCTGAGGTTCATTTGTACGGCGATGTTGTGCTGCGATTTGTTTCTTATCTCAAGGACGCCGACAACCTGGTCTTCCTGCCGGGGTTTGAGGCCATGGATGAAACTGCTAGTTACAAAGAACTTGATTATGGAATACGGCGTTTGGATCATGCTGTGGGCAATGTTCCAGAACTCGGCCCGGTAGTTGATTACATCAAGAGGTTTACTGGATTTCATGAATTTGCAGAGTTTACCGCTGAAGATGTGGGAACTGCGGAAAGTGGGCTAAACTCCATGGTTCTTGCGAACAATGATGAGACTGTGCTCCTCCCTCTGAATGAGCCTGTTTATGGCACCAAAAGAAAATCTCAGATACAAACATATCTTGAGCATAATGAAGGAGCTGGGGTGCAGCACCTTGCTCTTGTTACTGAAGACATCTTTAAGACTTTGACAGAGATGAGGAAGAGAAGTGGAGTTGGAGGTTTTGAGTTCATGCCTTCCCCCCCGCCGACCTACTACAAGAATTTGAAGAACAGGGCTGGTGACGTCCTCTCAGACGAGCAGATTTTGGCTTGTGAGGAGCTTGGCATCTTGGTAGACCGGGACGACCAGGGGACGCTTCTCCAAATTGCCACAAAACCCGTCGGGGACCGCCCCACCATATGGATTGAGATCATCCAGAGGATAGGCTGCATGCTTAAAGATGGAAAAGGTCAAGTGTACCAGAAGGGTGGTTGTGGTGGGTTTGGCAAAGGAAATTTTTCTGAGCTGTTCAGAAGCATAGAAGAATATGAGAAGACACTGGAAGCAAAACAAGCAAATCAAGTTGCGGCCGCGTGA
modifications: NtHPPDm-F372A-F383W-02 Nucleotide Sequence
notes: vector DBN11753
[1]; [4]
  Resistance evaluation: Moderately
  Scores (pesticide damage): 33
  Classification and statistics of the grade of pesticide damage: Grade 0 (number of plants): 1
  Classification and statistics of the grade of pesticide damage: Grade 1 (number of plants): 14
  Classification and statistics of the grade of pesticide damage: Grade 2 (number of plants): 1
  Classification and statistics of the grade of pesticide damage: Grade 3 (number of plants): 0
[1]; [5]
  Resistance evaluation: Poorly
  Scores (pesticide damage): 65
  Classification and statistics of the grade of pesticide damage: Grade 0 (number of plants): 0
  Classification and statistics of the grade of pesticide damage: Grade 1 (number of plants): 3
  Classification and statistics of the grade of pesticide damage: Grade 2 (number of plants): 11
  Classification and statistics of the grade of pesticide damage: Grade 3 (number of plants): 2
[2]; mesotrione 52.5 g ai/ha
  Resistance evaluation: Poorly resistant
  Scores: 35
  Grade 0 (classification and statistics of the grade of pesticide damage; number of plants): 1
  Grade 1 (classification and statistics of the grade of pesticide damage; number of plants): 13
  Grade 2 (classification and statistics of the grade of pesticide damage; number of plants): 2
  Grade 3 (classification and statistics of the grade of pesticide damage; number of plants): 0
[2]; mesotrione 105 g ai/ha
  Resistance evaluation: Non-resistant
  Scores: 69
  Grade 0 (classification and statistics of the grade of pesticide damage; number of plants): 0
  Grade 1 (classification and statistics of the grade of pesticide damage; number of plants): 1
  Grade 2 (classification and statistics of the grade of pesticide damage; number of plants): 13
  Grade 3 (classification and statistics of the grade of pesticide damage; number of plants): 2
[3]; topramezone 25 g ai/ha (1×)
  Classification and statistics of the grade of pesticide damage: Grade 0: 2
  Classification and statistics of the grade of pesticide damage: Grade 1: 13
  Classification and statistics of the grade of pesticide damage: Grade 2: 1
  Classification and statistics of the grade of pesticide damage: Grade 3: 0
  Scores: 31
  Resistance evaluation: moderately
[3]; topramezone 100 g ai/ha (4×)
  Classification and statistics of the grade of pesticide damage: Grade 0: 0
  Classification and statistics of the grade of pesticide damage: Grade 1: 1
  Classification and statistics of the grade of pesticide damage: Grade 2: 13
  Classification and statistics of the grade of pesticide damage: Grade 3: 2
  Scores: 69
  Resistance evaluation: non-resistant (non-resistant plants (scores 68-100))

Reference: patent publication US20250043302A1, “MUTATED HYDROXYPHENYLPYRUVATE DIOXYGENASE POLYPEPTIDE, AND CODING GENE AND USE THEREOF” (BEIJING DABEINONG BIOTECHNOLOGY CO., LTD., priority 2021, published 2025)
